Measurements published in article PMC3535368, “Heme orientation modulates histidine dissociation and ligand binding kinetics in the hexacoordinated human neuroglobin” (Journal of Biological Inorganic Chemistry, 2012).
Where two headings read alike, the source gives them in different places.

B1: WTox (A isomer): oxidized wild-type human Ngb (Cys46-Cys55 disulfide bridge), A heme conformer (protein, UniProt Q9NPG2 1-151, looked up)
Neuroglobin: MERPEPELIRQSWRAVSRSPLEHGTVLFARLFALEPDLLPLFQYNCRQFSSPEDCLSSPEFLDHIRKVMLVIDAAVTNVEDLSSLEEYLASLGRKHRAVGVKLSSFSTVGESLLYMLEKCLGPAFTPATRAAWSQLYGAVVQAMSRGWDGE
modifications: oxidized, heme A isomer
B2: WTox (B isomer): oxidized wild-type human Ngb (Cys46-Cys55 disulfide bridge), B heme conformer (protein, UniProt Q9NPG2 1-151, looked up)
Neuroglobin: MERPEPELIRQSWRAVSRSPLEHGTVLFARLFALEPDLLPLFQYNCRQFSSPEDCLSSPEFLDHIRKVMLVIDAAVTNVEDLSSLEEYLASLGRKHRAVGVKLSSFSTVGESLLYMLEKCLGPAFTPATRAAWSQLYGAVVQAMSRGWDGE
modifications: oxidized, heme B isomer
B3: human Ngb: human neuroglobin, hexacoordinated hemoprotein of brain and retina (protein, UniProt Q9NPG2 1-151, looked up)
Neuroglobin: MERPEPELIRQSWRAVSRSPLEHGTVLFARLFALEPDLLPLFQYNCRQFSSPEDCLSSPEFLDHIRKVMLVIDAAVTNVEDLSSLEEYLASLGRKHRAVGVKLSSFSTVGESLLYMLEKCLGPAFTPATRAAWSQLYGAVVQAMSRGWDGE
B4: WTred: wild-type human Ngb with reduced cysteines, both heme isomers (protein, UniProt Q9NPG2 1-151, looked up)
Neuroglobin: MERPEPELIRQSWRAVSRSPLEHGTVLFARLFALEPDLLPLFQYNCRQFSSPEDCLSSPEFLDHIRKVMLVIDAAVTNVEDLSSLEEYLASLGRKHRAVGVKLSSFSTVGESLLYMLEKCLGPAFTPATRAAWSQLYGAVVQAMSRGWDGE
modifications: reduced cysteines
notes: wild-type human Ngb with reduced cysteines, both heme isomers
B5: WTred (A isomer): DTT-reduced wild-type human Ngb, A heme conformer (protein, UniProt Q9NPG2 1-151, looked up)
Neuroglobin: MERPEPELIRQSWRAVSRSPLEHGTVLFARLFALEPDLLPLFQYNCRQFSSPEDCLSSPEFLDHIRKVMLVIDAAVTNVEDLSSLEEYLASLGRKHRAVGVKLSSFSTVGESLLYMLEKCLGPAFTPATRAAWSQLYGAVVQAMSRGWDGE
modifications: DTT-reduced, heme A conformer
B6: WTred (B isomer): DTT-reduced wild-type human Ngb, B heme conformer (protein, UniProt Q9NPG2 1-151, looked up)
Neuroglobin: MERPEPELIRQSWRAVSRSPLEHGTVLFARLFALEPDLLPLFQYNCRQFSSPEDCLSSPEFLDHIRKVMLVIDAAVTNVEDLSSLEEYLASLGRKHRAVGVKLSSFSTVGESLLYMLEKCLGPAFTPATRAAWSQLYGAVVQAMSRGWDGE
modifications: DTT-reduced, heme B conformer
B7: C120Sred (B isomer) (protein, UniProt Q9NPG2 1-151, looked up, variant C120S)
Neuroglobin: MERPEPELIRQSWRAVSRSPLEHGTVLFARLFALEPDLLPLFQYNCRQFSSPEDCLSSPEFLDHIRKVMLVIDAAVTNVEDLSSLEEYLASLGRKHRAVGVKLSSFSTVGESLLYMLEKSLGPAFTPATRAAWSQLYGAVVQAMSRGWDGE
modifications: reduced, heme B isomer
B8: C120Sox (A isomer) (protein, UniProt Q9NPG2 1-151, looked up, variant C120S)
Neuroglobin: MERPEPELIRQSWRAVSRSPLEHGTVLFARLFALEPDLLPLFQYNCRQFSSPEDCLSSPEFLDHIRKVMLVIDAAVTNVEDLSSLEEYLASLGRKHRAVGVKLSSFSTVGESLLYMLEKSLGPAFTPATRAAWSQLYGAVVQAMSRGWDGE
modifications: oxidized, heme A isomer
B9: C120Sox (B isomer) (protein, UniProt Q9NPG2 1-151, looked up, variant C120S)
Neuroglobin: MERPEPELIRQSWRAVSRSPLEHGTVLFARLFALEPDLLPLFQYNCRQFSSPEDCLSSPEFLDHIRKVMLVIDAAVTNVEDLSSLEEYLASLGRKHRAVGVKLSSFSTVGESLLYMLEKSLGPAFTPATRAAWSQLYGAVVQAMSRGWDGE
modifications: oxidized, heme B isomer
B10: C120Sred (A isomer) (protein, UniProt Q9NPG2 1-151, looked up, variant C120S)
Neuroglobin: MERPEPELIRQSWRAVSRSPLEHGTVLFARLFALEPDLLPLFQYNCRQFSSPEDCLSSPEFLDHIRKVMLVIDAAVTNVEDLSSLEEYLASLGRKHRAVGVKLSSFSTVGESLLYMLEKSLGPAFTPATRAAWSQLYGAVVQAMSRGWDGE
modifications: reduced, heme A isomer

Tests used:
[1] = for fraction of isomer remaining unbound (free) at equilibrium: end of reaction; for k off, off-rate of cyanide: estimated from K d and k obs; for Kd: read-out: K d, dissociation constant of cyanide, calculated from concentrations of free and bound species at equilibrium
[2] = set-up: method as in PMID 15020597; details: UV-visible study; cited from earlier work
[3] = Air reoxidation of the disulfide bridge followed by 1H NMR, cyanide omitted; assay type: physicochemical, human; details: no reducing agent, increase of WTox peak intensity
[4] = 500 μM KCN, 100 μM protein, 20 mM Tris-HCl pH 7.4, 298 K
[5] = calculated from T and 500 μM cyanide, 1/T = k obs[CN−]

Row | Molecule | T, time constant of cyanide binding (exponential fit of heme methyl peak intensities) [1, 4] | k obs, second-order association rate constant for cyanide binding [1, 5] | k obs, second-order association rate constant for cyanide binding [1] | T, time constant of cyanide binding (exponential fit of heme methyl peak intensities) ([1]; pH 7.4) | other results
1 | B1 | 19 min | 1.75 M⁻¹ s⁻¹ | – | – | time after KCN injection at which CN− binding reaction was completed ([1]; judged from constant peak intensities, 500 μM KCN): 60 min
2 | B2 | 97 min | 0.34 M⁻¹ s⁻¹ | – | – | time after which CN− binding reaction was hardly finished ([1]; 500 μM KCN): ~5 h
3 | B3 | – | – | – | – | fast cyanide binding rate (biphasic) [2]: 1.65 M⁻¹ s⁻¹; slow cyanide binding rate (biphasic) [2]: 0.37 M⁻¹ s⁻¹; k on,CN, rate of cyanide binding to the pentacoordinate state ([1]; estimated here): 6700 M⁻¹ s⁻¹
4 | B4 | – | – | – | – | rate (time) of air reoxidation of the disulfide bridge [3]: about 60 h
5 | B5 | 127 min | 0.26 M⁻¹ s⁻¹ | – | – | fraction of isomer remaining unbound (free) at equilibrium ([1]; 500 μM KCN, 100 μM protein): about 42%; k off, off-rate of cyanide [1]: 3.9e-05 s⁻¹; Kd [1]: 153 µM
6 | B6 | 265 min | 0.12 M⁻¹ s⁻¹ | – | – | fraction of isomer remaining unbound (free) at equilibrium ([1]; 500 μM KCN, 100 μM protein): ~24%; k off, off-rate of cyanide [1]: 3.9e-05 s⁻¹; Kd [1]: 316 µM
7 | B7 | – | – | 0.13 M⁻¹ s⁻¹ | 255 min | –
8 | B8 | – | – | 1.85 M⁻¹ s⁻¹ | 18 min | –
9 | B9 | – | – | 0.28 M⁻¹ s⁻¹ | 119 min | –
10 | B10 | – | – | 0.24 M⁻¹ s⁻¹ | 138 min | –
